From patent publication US20080138330

Biological target: RTEF-1 (TEAD4) (Homo sapiens) (UniProt Q15561)
Experiment: cell_activity

Chain of RTEF-1 (TEAD4) (Homo sapiens) (Q15561 other isoform, or with tags, fused parts or gaps): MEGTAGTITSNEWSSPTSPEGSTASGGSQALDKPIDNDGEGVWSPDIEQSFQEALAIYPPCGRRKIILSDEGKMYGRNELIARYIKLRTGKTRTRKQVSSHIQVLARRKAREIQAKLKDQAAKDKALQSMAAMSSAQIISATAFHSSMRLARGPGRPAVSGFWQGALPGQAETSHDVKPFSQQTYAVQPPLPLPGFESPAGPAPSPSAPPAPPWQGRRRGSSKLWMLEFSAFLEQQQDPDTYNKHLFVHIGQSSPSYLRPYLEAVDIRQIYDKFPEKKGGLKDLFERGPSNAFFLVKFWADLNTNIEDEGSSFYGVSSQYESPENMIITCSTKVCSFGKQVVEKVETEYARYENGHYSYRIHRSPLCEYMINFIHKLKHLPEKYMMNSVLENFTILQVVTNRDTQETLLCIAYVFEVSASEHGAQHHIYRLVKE

| Substance | activity (luciferase, +/-0.3, 2.7 +/-0.2 fold in hypoxia) | activity (luciferase in BAEC) |
| --- | --- | --- |
| VEGF 0.35 promoter (-194/+157) | 2.2 fold | – |
| FGFR1 0.15 kb promoter (-48/+94) | – | > 3 fold |
